Experiments:
[1] = target: T1, human alpha-2-antiplasmin (human, UniProt P08697 40-491, limits assumed, 125I-labelled in the radioimmunoassays; biotinylated in the competition assay of Example 5); test: cell-based or functional assay
T1 sequence (looked up): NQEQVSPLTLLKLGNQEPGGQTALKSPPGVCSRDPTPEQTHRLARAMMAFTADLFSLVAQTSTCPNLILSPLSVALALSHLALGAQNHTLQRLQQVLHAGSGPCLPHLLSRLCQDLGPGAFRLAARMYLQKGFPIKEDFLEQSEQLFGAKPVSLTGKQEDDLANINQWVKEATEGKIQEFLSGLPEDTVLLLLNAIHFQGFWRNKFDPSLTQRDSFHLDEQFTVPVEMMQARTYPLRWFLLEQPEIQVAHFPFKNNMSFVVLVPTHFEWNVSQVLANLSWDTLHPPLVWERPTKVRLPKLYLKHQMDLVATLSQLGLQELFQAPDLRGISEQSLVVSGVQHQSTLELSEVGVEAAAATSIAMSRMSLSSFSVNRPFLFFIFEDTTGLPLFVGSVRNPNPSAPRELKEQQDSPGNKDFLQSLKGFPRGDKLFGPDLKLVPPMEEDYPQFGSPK

[2] = target: ferret α2-antiplasmin (ferret); test: cell-based or functional assay

increase in potency of lysis by urokinase (dose response with and without MAb) [1]: ~100 fold
inhibition of ferret α2AP activity in plasma, ex vivo, 1 and 4 hours after 22.5 mg/kg i.v. (chromogenic plasmin inhibition assay) [2]: 75%
B1: monoclonal antibody 77A3 (antibody, V domains shown)
VH: QIQLVQSGPELKKPGETVKISCKASGYTFTNYGMNWVKQAPGKGLKWMGWINTKSGEPTYAEEFKGRFAFSLETSASTANLQIKNLKNEDTATYFCARWVPGTYAMDYWGQGTSVTVSS
VL: DIQMTQSPASLSASVGETVTITCRASGNIHNYLAWYQQKQGKSPQLLVYNAKTLADGVPSRFSGSGSGTQFSLKINSLQPEDFGSHYCQHFWTTPWTFGGGTKLEIK

Reference: patent publication US20030031664A1 (GENERAL HOSPITAL, published 2003)
